Results as given in US20250052751A1, “COMPOSITIONS AND METHODS FOR DIAGNOSING AUTOIMMUNE AQUAPORINOPATHY” (The Regents of the University of California, priority 2023, published 2025).

Target: MHC class II I-A^b molecules purified by affinity chromatography (mouse) (UniProt P14434)
Test: competitive peptide binding assay on purified I-Ab

IC50: 387 nM
Substance: MOG p35-55 (from UniProt Q61885 63-83)
